In this assay the target is H3K4Me3 peptide. Nature of the assay: ITC. A general note: In ITC the heat of successive injections is recorded.

The results in this text go back to publication PMC3520067.

Take MORC3 CW domain (domain or fragment): the dissociation constant (Kd) (usually the free concentration of one partner at which half of the binding sites on the other are occupied at equilibrium, for simple one-to-one binding) stood at 600 nM. This counts as sub-micromolar.

Turning to “recombinant SPIN1 (from UniProt Q9Y657 1-262) (natural protein)”, the dissociation constant (Kd) stood at 1100 nM.
